Where only a bound is given, the exact number is not on record here.

Data set [1] addresses L1 FN3 putative C-C′ loop peptide …^852, wild type (human). Nature of the data set: SDS-PAGE of peptides.
The data set “SEC” concerns the molecule itself. Description: SEC.
Data set [2] concerns the molecule itself. Nature of the data set: SDS-PAGE without boiling, immunoblot.

“L1 FN3 putative C-C′ loop peptide …^852, wild type”: the stoichiometry N in data set [1] stood at 3.

B1: L1 third FN-like repeat (FN3), GST fusion protein, wild type (domain or fragment, human, UniProt P32004 814-916, looked up)
chain: AIPELEGIEILNSSAVLVKWRPVDLAQVKGHLRGYNVTYWREGSQRKHSKRHIHKDHVVVPANTTSVILSGLRPYSSYHLEVQAFNGRGSGPASEFTFSTPEG
Consider B1, for which the “stoichiometry N” value in “SEC” is no less than 3.

B2: L1 FN-like repeats 1-3 (FN1-3) fusion protein, as run on SDS-PAGE (domain or fragment, human, UniProt P32004 615-916, looked up)
chain: VPRLVLSDLHLLTQSQVRVSWSPAEDHNAPIEKYDIEFEDKEMAPEKWYSLGKVPGNQTSTTLKLSPYVHYTFRVTAINKYGPGEPSPVSETVVTPEAAPEKNPVDVKGEGNETTNMVITWKPLRWMDWNAPQVQYRVQWRPQGTRGPWQEQIVSDPFLVVSNTSTFVPYEIKVQAVNSQGKGPEPQVTIGYSGEDYPQAIPELEGIEILNSSAVLVKWRPVDLAQVKGHLRGYNVTYWREGSQRKHSKRHIHKDHVVVPANTTSVILSGLRPYSSYHLEVQAFNGRGSGPASEFTFSTPEG
B2: the “stoichiometry N” value in data set [2] stood at 3.

These data come from paper PMC2175144 (The Journal of Cell Biology, 2000).
